B1: Apt A4 (biotin) (ssDNA)
DNA: ATTGGCACTCCACGCATAGGGTCGACGGTGCCGTCCGTGTTCACACTCCCATTTGGGTGGCCTATGCGTGCTACCGTGAA
B2: Atc-20 (ssDNA)
DNA: CACGCATAGGGTCGACGGTGCCGTCCGTGTTCACACTCCCATTTGGGTGGCCTATGCGTG
B3: Atc-28 (ssDNA)
DNA: CATAGGGTCGACGGTGCCGTCCGTGTTCACACTCCCATTTGGGTGGCCTATG

Target: ASFV p30 (African swine fever virus, UniProt P34204 1-204)
Assay: enzyme-linked aptamer adsorbed assay; […] (binding buffer not stated); […], room temperature, 30 min; […]
Settings: protein: commercial, label: 5'-biotin
[1] = hairpin (M-fold predicted for parent)

Sequence of ASFV p30 (P34204 whole entry): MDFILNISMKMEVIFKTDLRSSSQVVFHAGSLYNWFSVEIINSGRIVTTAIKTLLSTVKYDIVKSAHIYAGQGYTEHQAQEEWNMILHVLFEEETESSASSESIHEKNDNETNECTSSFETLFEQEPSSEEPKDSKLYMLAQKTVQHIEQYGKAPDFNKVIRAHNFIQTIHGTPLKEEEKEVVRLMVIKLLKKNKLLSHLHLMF

Binder | Kd [1] | other results
GGGTCGACGGTGCCGTCCGTGTTCACACTCCCATTTGGGTGGCC (ssDNA) [Atc-34] | 0.266 ± 0.068 nM | –
ATTGGCACTCCACGCATCTATGCGTGCTACCGTGAA (ssDNA) [AptNC] | – | binding result: no binding
B1 | – | Kd (hairpin (M-fold predicted)): 0.17 ± 0.0062 nM
B2 | 0.14 ± 0.01 nM | –
B3 | 0.153 ± 0.0003 nM | –

— PMC10876938, “In vitro SELEX and application of an African swine fever virus (ASFV) p30 protein specific aptamer”
